Test results: PMC7969121, “Structural and Kinetic Characterization of Hyperthermophilic NADH-Dependent Persulfide Reductase from Archaeoglobus fulgidus” (Archaea, 2021)
One block for each molecule: values may come before it.

Key:
AfNpsr; A. fulgidus Npsr = molecular target: T1, AfNpsr; A. fulgidus Npsr (Archaeoglobus fulgidus, UniProt O29847); experiment: X-ray crystal structure, […] Å; format: binding; conditions: tightly bound catalytic CoA in active site near Cys 42
T1 construct: gene AF_0400; codon-optimized full-length gene in pET21b+, C-terminal His6-tag, E. coli BL21(DE3); FAD added; FAD domain 1-448, rhodanese domain 449-550

[1] = substrate: NC(=O)C1=CN([C@@H]2O[C@H](COP(=O)(O)OP(=O)(O)OC[C@H]3O[C@@H](n4cnc5c(N)ncnc54)[C@H](O)[C@@H]3O)[C@@H](O)[C@H]2O)C=CC1; experiment: NADH oxidase, A340, Michaelis-Menten fit; format: biochemical, Archaeoglobus fulgidus; conditions: aerobic, O2 as acceptor, no di-, per- or polysulfide, 50 mM sodium phosphate pH 7.5, 70°C
From the text: NADH oxidase, A340, Michaelis-Menten fit on AfNpsr; A. fulgidus Npsr

[2] = substrate: N[C@@H](CSS)C(=O)O; experiment: NADH oxidation at A340, Michaelis-Menten fit; format: biochemical, Archaeoglobus fulgidus; conditions: 100 μM NADH, aerobic, 50 mM sodium phosphate pH 7.5, 70°C, persulfide made in situ from disulfide + 2-fold sodium sulfide, oxidase background not subtracted
From the text: (§1) NADH oxidation at A340, Michaelis-Menten fit on AfNpsr; A. fulgidus Npsr

[3] = substrate: CC(C)(COP(=O)(O)OP(=O)(O)OC[C@H]1O[C@@H](n2cnc3c(N)ncnc32)[C@H](O)[C@@H]1OP(=O)(O)O)[C@@H](O)C(=O)NCCC(=O)NCCSS; experiment: NADH oxidation at A340, Michaelis-Menten fit; format: biochemical, Archaeoglobus fulgidus; conditions: 100 μM NADH, aerobic, 50 mM sodium phosphate pH 7.5, 70°C, persulfide made in situ from disulfide + 2-fold sodium sulfide, oxidase background not subtracted
From the text: as §1

[4] = substrate: O=C(O)c1cc(SSc2ccc([N+](=O)[O-])c(C(=O)O)c2)ccc1[N+](=O)[O-]; experiment: TNB formation at A412, Michaelis-Menten fit; format: biochemical, Archaeoglobus fulgidus; conditions: 100 μM NADH, aerobic, 50 mM sodium phosphate pH 7.5, 70°C, buffer background subtracted
From the text: TNB formation at A412, Michaelis-Menten fit on AfNpsr; A. fulgidus Npsr

- X-ray crystal structure, 3.1 Å (AfNpsr; A. fulgidus Npsr): In AfNpsr, CoA is deeply buried
Molecule: CC(C)(COP(=O)(O)OP(=O)(O)OC[C@H]1O[C@@H](n2cnc3c(N)ncnc32)[C@H](O)[C@@H]1OP(=O)(O)O)[C@@H](O)C(=O)NCCC(=O)NCCS [CoA]

B1: AfNpsr; A. fulgidus Npsr (Archaeoglobus fulgidus DSM 4304) (protein)
chain: MNVVVIGGGAAGLKAASRIRRKDGDASITVVEAGKYVSLGRCGLPYYVGGLVHEVDNLRETTYGAVRDEAYFKKLKNIDVLTETVATEIDRSRKTVKIVRNGSEDELNYDYLVIATGARPAKPPIEGIEAEGVVTLTSAEEAEKIIEMWEEGAEKAVVIGAGFIGLESAEALKNLDMEVTVIEMMDRVAPAMLDREMAVLVENHLREKGVNVVTSTRVEKIVSQDDKVRAVIANGKEYPADVVVVATGIKPNSELAEKAGLKIGETGAIWVDEYMRTSDESIYAGGDCVETTCLVTGKKIIAPFGDVANKQGRVIGENITGGRAVFPGVIRTAIFKVFDFTAASAGVNEQMAKEAGLDYFTVIAPSPDRAHYYPQANYIRLKLIVEKGSWRVIGAQGVGMGEVAKRIDVLSTAIQAGMTIDQLANLDLAYAPPYSPALDPVITIANVAMNKRDGLFEGINVFELKEKLEKEDIVILDVRSEEEFKTRRIESEKVIHIPILELRERLDEIPRDKEIVVVCAIGLRSFEASRILKHAGFEKVKILEGGMAFWF
notes: codon-optimized full-length gene in pET21b+, C-terminal His6-tag, E. coli BL21(DE3); FAD added; FAD domain 1-448, rhodanese domain 449-550
- Km [1]: 20.6 ± 5.1 µM
- kcat [1]: 7.15 ± 0.51 s⁻¹
- kcat/Km [1]: 347000 ± 75000 M⁻¹ s⁻¹
- Km [2]: 3410 ± 630 µM
- kcat [2]: 230 ± 23 s⁻¹
- kcat/Km [2]: 67600 ± 11000 M⁻¹ s⁻¹
- Km [3]: 547 ± 41 µM
- kcat [3]: 13.2 ± 0.3 s⁻¹
- kcat/Km [3]: 24100 ± 1400 M⁻¹ s⁻¹
- Km [4]: 743 ± 196 µM
- kcat [4]: 2.44 ± 0.14 s⁻¹
- kcat/Km [4]: 3280 ± 480 M⁻¹ s⁻¹
